B1: mAb 39F02 (antibody, V domains shown)
VH: EVQLLESGGGLVQPGGSLRLSCAASGFTLSNYAMSWVRQAPGKGLEWVSAISGSGGGTYNADSVKGRFTISRDNSKNTLYLQMNSLRAEDTAVYYCAKEAWISYFDYWGQGTLVTVSS
VL: DIVMSQSPSSLAVSVGEKVTLSCKSSQSLLYGDDQKNYLAWYQQKPGQSPKLLLYWASTWESGVPDRFTGSGSGTDFTLTISSVKAADLAVYYCQQYYSYPWTFGGGTKLEIK
notes: Hybridoma antibody from AlivaMab Mouse; Human HC (chimeric IgH with mouse CH2 and CH3) and murine LC; also called clone 39F02
B2: mAb 46H02 (antibody, V domains shown)
VH: QVQLVQSGAEVKKPGASVKVSCKASGYTFTGYSMHWVRQAPGQGLEWMGWINPHSGGTNSAQKFQGRVTMTRDTSIGTAYMELNRLRSDDTAVYYCVRDNPITGFDYWGQGTLVTVSS
VL: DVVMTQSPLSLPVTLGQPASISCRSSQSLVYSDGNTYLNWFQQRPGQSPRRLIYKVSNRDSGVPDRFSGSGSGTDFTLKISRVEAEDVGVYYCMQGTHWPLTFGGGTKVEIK
notes: Hybridoma antibody from AlivaMab Mouse; 46H02 has a fully human F(ab)2 (human light chain); also called clone 46H02
B3: mAb 38E05 (antibody, V domains shown)
VH: EVQLLESGGGLVQPGGSLRLSCAASGFTLSNYAMSWVRQAPGKGLEWVSAISGSGGGTYNADSVKGRFTISRDNSKNTLYLQMNSLRAEDTAVYYCAKEAWISYFDYWGQGTLVTVSS
VL: DIVMSQSPSSLAVSVGEKVTLSCKSSQSLLYGDDQKNYLAWYQQKPGQSPKLLLYWASTWESGVPDRFTGSGSGTDFTLTISSVKAADLAVYYCQQYYSYPWTFGGGTKLEIK
notes: Hybridoma antibody from AlivaMab Mouse; Human HC (chimeric IgH with mouse CH2 and CH3) and murine LC; also called clone 38E05
B4: mAb 20F08 (antibody, V domains shown)
VH: EVQLVESGGGLVKPGGSLRLSCAASGFIFSNYNINWVRQAPGKGLEWVSCVSRSNYTYYTDSVKGRFTISRDNAKKSLYLQMNSLRAEDTAVYYCARDCGTYGVFDYWGQGTLVTVSS
VL: ETTVTQSPASLSMAIGEKVTIRCITSTDIDDDMNWYQQKPGEPPKLLISEGNILRPGVPSRFSSSGYGTDFVFAIENMLSEDVADYYCLQSDNLPYTFGGGTKLELK
notes: Hybridoma antibody from AlivaMab Mouse; Human HC (chimeric IgH with mouse CH2 and CH3) and murine LC; also called clone 20F08
B5: mAb 12H07 (antibody, V domains shown)
VH: EVQLVESGGGLVKPGGSLRLSCAASGFIFSNYNINWVRQAPGKGLEWVSCVSRSNYTYYTDSVKGRFTISRDNAKKSLYLQMNSLRAEDTAVYYCARDCGTYGVFDYWGQGTLVTVSS
VL: ETTVTQSPASLSMAIGEKVTIRCITSTDIDDDMNWYQQKPGEPPKLLISEGNILRPGVPSRFSSSGYGTDFVFAIENMLSEDVADYYCLQSDNLPYTFGGGTKLELK
notes: Hybridoma antibody from AlivaMab Mouse; Human HC (chimeric IgH with mouse CH2 and CH3) and murine LC; also called 12H7; clone 12H07

Columns and labels:
[1] = target: T1, human Galectin-3 (LGALS3) (human, UniProt P17931 2-250, limits assumed); assay: ELISA on human Gal-3 (huGal3), one OD450 value per clone
T1 construct: also called human Gal-3; Gal-3
T1 sequence (P17931 2-250 limits assumed): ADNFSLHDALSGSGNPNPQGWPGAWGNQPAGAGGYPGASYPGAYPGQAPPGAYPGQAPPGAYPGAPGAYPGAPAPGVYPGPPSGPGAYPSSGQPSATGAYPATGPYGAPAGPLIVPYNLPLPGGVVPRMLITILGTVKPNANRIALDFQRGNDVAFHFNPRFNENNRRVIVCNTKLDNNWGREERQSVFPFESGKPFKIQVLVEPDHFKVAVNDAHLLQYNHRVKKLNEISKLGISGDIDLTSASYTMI

mouse Gal-3 [2] = target: T2, mouse Gal-3 (mouse, UniProt P16110 2-264, limits assumed); assay: ELISA on mouse Gal-3 (moGal3), one OD450 value per clone
T2 construct: also called mouse Galectin-3; Lgal3
T2 sequence (P16110 2-264 limits assumed): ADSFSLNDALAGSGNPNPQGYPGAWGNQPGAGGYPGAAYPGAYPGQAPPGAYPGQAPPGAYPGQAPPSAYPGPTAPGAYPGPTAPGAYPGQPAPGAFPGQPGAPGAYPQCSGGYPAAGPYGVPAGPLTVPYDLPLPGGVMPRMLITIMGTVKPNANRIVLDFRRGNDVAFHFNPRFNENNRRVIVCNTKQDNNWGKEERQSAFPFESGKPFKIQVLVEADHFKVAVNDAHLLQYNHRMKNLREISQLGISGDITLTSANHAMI

[3] = target: T3, PE labeled Gal-3 (Gal-3-PE) (human, UniProt P17931 1-250, limits assumed, labelled with PE (phycoerythrin; Innova Biosciences kit), sites not stated); assay: blockade of Gal-3-PE binding to OVCAR3 cells by purified antibody, number of Gal-3-PE-bound cells (Mirrorball)
T3 construct: Bought human Gal-3 labelled with PE; also called huGal-3 (Abcam ab89487) labelled with PE
T3 sequence (P17931 whole entry): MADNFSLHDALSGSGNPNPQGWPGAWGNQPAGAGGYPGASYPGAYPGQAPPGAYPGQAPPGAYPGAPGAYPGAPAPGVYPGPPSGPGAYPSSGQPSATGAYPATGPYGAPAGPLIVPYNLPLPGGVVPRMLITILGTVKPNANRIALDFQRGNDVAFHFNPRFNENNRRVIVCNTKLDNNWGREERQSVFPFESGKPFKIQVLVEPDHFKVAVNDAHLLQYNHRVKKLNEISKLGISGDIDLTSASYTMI
Description: Reactions to measure binding of Gal-3-PE to OVCAR3 cells were set up in the presence of PBS (negative control), or increasing concentrations of the indicated antibody. Purified antibodies were used in the binding reactions. Shown are the effects of antibody concentration on the extent of inhibition of Gal-3-PE binding to OVCAR3 by antibody clones 20F08 and 12H07 (FIG. 6A), which have the identical sequences, 46H02 (FIG. 6B), clones 38E05 and 39F02 (FIG. 6C), which also have identical sequences, and 14D11.2D3 (FIG. 6D).
An assay for Gal-3-PE binding to cancer cells was developed as a secondary screen. huGal-3 (Abcam ab89487) was labelled with PE (Innova Biosciences) according to manufacturer's instructions. The assay for Gal-3-PE binding to OVCAR3 cells was performed as follows: cultured […] cells were trypsinized and washed with culture medium. 500, 1000 or 2000 cells were incubated with various concentrations of Gal-3-PE. The indicated number of OVCAR3 cells were pipetted into a 96-well plate with the indicated amount of Gal-3-PE and incubated on the bench in the dark for 2 hrs prior to being read on a Mirrorball® device (TTP Labtech). Binding of Gal-3-PE to OVCAR3 cells was detected using the Mirrorball® flow cytometer.
Next, the clones were subjected to determination of dose-response of blockade of Gal-3-PE binding to OVCAR3 cells. […]

[4] = target: T1, human Galectin-3 (LGALS3); assay: SPR, increasing concentrations of the mAb
Description: Clones 46H02 and 20F08 were then subjected to determination of binding parameters using surface plasmon resonance (SPR) in the presence of increasing concentrations of these antibodies.

mouse Gal-3 [5] = target: T2, mouse Gal-3; assay: ELISA on mouse Gal-3 (moGal3)

Binder	OD450 [1]	OD450 (mouse Gal-3 [2])	IC50 (read off the curve) [3] [µg/mL]	Kd [4] [nM]	binding result (mouse Gal-3 [5])
B1	0.502	0.726			
B2	2.56	1.38	~1	10	
B3	0.86	1.12			
B4	0.523	0.047		44	no binding
B5	1.4	0.049			no binding

From patent US20240026009A1 (Memorial Sloan Kettering, published 2024)
